Target: Monoclonal antibody L9 (human IgG)
Assay: KinExA (kinetic exclusion assay); equilibrium in solution; antigen serially diluted into a constant concentration of antibody (human IgG as constant binding partner); equilibrated 24 h; room temperature (about 25 °C); 1x HBS-EP+ pH 7.4 with BSA at 1 mg/mL; antigen cross-linked to beads as capturing reagent; n-curve analysis

Sequence of Monoclonal antibody L9 (human IgG) (heavy, as listed by the source, chain 1 of 2): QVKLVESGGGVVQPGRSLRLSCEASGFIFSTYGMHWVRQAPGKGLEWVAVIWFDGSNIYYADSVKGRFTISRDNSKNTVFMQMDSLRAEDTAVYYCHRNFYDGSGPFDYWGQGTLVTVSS
Sequence of Monoclonal antibody L9 (human IgG) (light, as listed by the source, chain 2 of 2): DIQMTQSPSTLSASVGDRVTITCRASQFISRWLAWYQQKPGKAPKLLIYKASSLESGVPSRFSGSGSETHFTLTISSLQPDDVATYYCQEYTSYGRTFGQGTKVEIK

Binder | Kd [nM]
NANPNVDPNANPNVDP (modifications not checked) [double-NPNV peptide] | 4.56
NANPNVDPNANPNVDPNANPNVDP (modifications not checked) [triple-NPNV peptide] | 0.059

Source: paper PMC13079917
